What all share (test): ITC
For orientation: Isothermal titration calorimetry measures the heat released or taken up as one component is titrated into another.

The target of test [1] is human Bmf BH3 motif peptide (26-mer) (human).
The target in test [2] is human Bad BH3 motif peptide (26-mer) (human).
The target in test [3] is human Puma BH3 motif peptide (26-mer) (human).
Test [4] has as its target human Hrk BH3 motif peptide (26-mer) (human).

The record followed here is doi:10.1101/2020.01.21.914671.

Consider “TANV16L K52A lacking the C-terminal 23 residues (domain or fragment)”, for which the fold reduction in binding against wild type TANV16L in test [1] turned out to be 20 fold; in test [2], 27 fold.

As to “TANV16L R90A lacking the C-terminal 23 residues (domain or fragment)”, the fold reduction in binding against wild type TANV16L in test [3] and in test [4] was 2 fold throughout.
